From article PMC5730846

Legend:
[1] = target: Tsc1-D-His6 labeled with Texas Red maleimide (UniProt Q92574); assay: fluorescence polarisation; fluorescence anisotropy; 1 μM Texas Red-labeled Tsc1-D, Hsp90α at the indicated concentrations; 50 mM Tris pH 7.2, 150 mM NaCl, 1 mM TCEP, 4 mM MgCl2; no nucleotide or drug; single-site fit
[2] = target: Tsc1-D-His6 labeled with Texas Red maleimide (UniProt Q92574); assay: fluorescence polarisation; as a5, Hsp90α pre-incubated with 1 μM GB (ganetespib)
[3] = target: recombinant Hsp90α (human) (UniProt P07900)

Tsc1-D-His6 labeled with Texas Red maleimide, sequence (Q92574 998-1164): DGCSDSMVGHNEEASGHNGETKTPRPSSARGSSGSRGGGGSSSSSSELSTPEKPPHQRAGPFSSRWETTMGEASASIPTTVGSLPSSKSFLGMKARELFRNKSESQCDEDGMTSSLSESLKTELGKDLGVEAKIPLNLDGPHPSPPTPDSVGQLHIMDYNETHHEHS
recombinant Aha1-FLAG, sequence (O95433 whole entry): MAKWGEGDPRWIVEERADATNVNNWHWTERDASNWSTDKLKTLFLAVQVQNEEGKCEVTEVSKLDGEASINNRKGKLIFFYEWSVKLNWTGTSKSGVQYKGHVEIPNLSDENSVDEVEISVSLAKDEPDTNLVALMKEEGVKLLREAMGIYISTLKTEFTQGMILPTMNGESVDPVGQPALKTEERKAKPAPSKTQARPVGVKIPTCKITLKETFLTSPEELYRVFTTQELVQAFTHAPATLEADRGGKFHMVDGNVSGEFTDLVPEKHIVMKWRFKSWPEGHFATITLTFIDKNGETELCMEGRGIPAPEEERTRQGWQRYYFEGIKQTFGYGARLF

Kd [1] | Kd [2] | Hsp90α ATPase activity in vitro after incubation with 1 μM Tsc1-D-His6 and addition of 1.3 μM Aha1-FLAG (percent of Hsp90α alone) [3] | Substance
480 nM | > 5000 nM | – | recombinant Hsp90α (from UniProt P07900 1-732) (natural protein)
– | – | 100% | recombinant Aha1-FLAG (from UniProt O95433 1-338) (natural protein)
